Changes are numbered by the printed parent chain. Each block holds one binder with its values, some of them ahead of it.
Assays:
[1] = target: T1, Screening Peptide DDR1_HUMAN(788-808) (human, N-terminal Glu(Bi-PEG) (residue 1 of the letters given); C-terminal amide (-NH2)); experiment: ELISA, biotinylated peptide on streptavidin plate, 30 ul transfection supernatant
T1 construct: The leading E stands for the printed Glu(Bi-PEG), which is not part of DDR1 788-808; also called non-phosphorylated screening peptide
T1 peptide: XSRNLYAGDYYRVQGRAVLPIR

[2] = target: Screening Peptide DDR1_HUMAN(788-808)[pY796] (human); experiment: as above
[3] = target: Screening Peptide DDR1_HUMAN(788-808)[pY796] (human); experiment: SPR (Biacore T200), antibody captured by goat anti-rabbit Fc, peptide as analyte, 25 C; value of Table 3 as repeated in the description

OD 405 [1]: 0.286 OD 405
OD 405 [2]: 3.12 OD 405
Kd [3]: 51 pM
B1: rabbit monoclonal anti-pY796-DDR1 antibody 22D9 (antibody, V domains shown)
VH: QSVEESGGRLVTPGTPLTLTCKVSGFSLSNYHMIWVRQAPGKGLEWIGIISRRGTTWYASWVKGRFTISKSSTTVDLKITSPTTEDTATYFCARGGVDSSYRDLWGPGTLVTVSS
VL: QVLTQTPSSVSAAVGGTVTINCQSNQRVANVNCLAWYQQKPGQPPKLLIYDASSLASGVPSRFSGSGSGTQFTLSISGVQCGDAATYYCQGTYATFGASAWYGDAFGGGTEVVVE
notes: Full-length rabbit IgG (150 kDa), expressed in HEK293 cells; Same variable domains as 31A5; also called clone 22D9

OD 405 [1]: 0.253 OD 405
OD 405 [2]: 2.98 OD 405
B2: rabbit monoclonal anti-pY796-DDR1 antibody 31A5 (antibody, V domains shown)
VH: B1 VH
VL: B1 VL
notes: Full-length rabbit IgG (150 kDa), expressed in HEK293 cells; Same variable domains as 22D9; also called clone 31A5

OD 405 [1]: 0.313 OD 405
OD 405 [2]: 3.06 OD 405
Kd [3]: 38 pM
B3: rabbit monoclonal anti-pY796-DDR1 antibody 20G11 (antibody, V domains shown)
VH: B1 VH with S71G
VL: B1 VL with N25S
notes: Full-length rabbit IgG (150 kDa), recombinantly expressed in HEK293 cells; also called clone 20G11

Source: patent WO2018083240A1 (dated 2018)
